Test results: a protein production outcome set (Wang et al. 2014)

Assay: label from the status in PepcDB records

For “MRRPPVVGVLLAAGRGSRFDPDGTVNKLLAALPDGTPVAVQAARHLRAVLDDVVAVVPAAGTHGAEVERLAALLAEAGCEVLRCARAARGMGASLAAGVAARPHAGGWIIALADMPWLAPHTIARVAQALDARHCVAPFHQGRRGHPIGFGADYFAGLAALDGDEGARALIDPARLIRLDVGDAGTLRDVDTPADVCGA”, the protein production was “failed”.

For “QIHLFSEPQFQGHSQSFEETTSQIDDSFSTKSCRVSGGSWVVYDGENFTGNQYVLEEGHYPCLSAMGCPPGATFKSLRFI”, the protein production was “not failed”.

With “MKKNIRLLTHNEIPRVWEIDRTELIERLYVLQQGQLVLSEQRFDMKGWPEGEAEHYTPVLLESAERGAPFWGVFEDDKLVAATSVDPQWRGQDNTLLQLSFLHISHQQRGQGLARILFDYCVEYAKQKGASGLYISSTPSENSVNFYQHMGCRLIDVPDTELYEREPEDIHLVLNFNKED” the protein production was “failed”.

For “MGYRRFLQLVAHEFFHLWNVKRIRPKALEQFDYEAENYTPSLWFSEGATSYYDLLLPLRAGLYGVDSFLEALGKDLSRYLTTPGRKVQPLAESSFDAWVKLYRRDAYSDNQQMSYYLKGQLVCWLLDLEIRNHQPDLEHHHHHH”, the protein production was “not failed”.

For “MNSKIMYHIFPDRFHRYGEDRPGLIKWGEKPSRDSFFGGNLEGIRQKIQYIKDLRVDHIYLNPLFKSKSNHRYDVDDYYSIDELLGTDQDLKNLVSDAHASGIKIVLDMVFNHTSTDFPAFRDVIEKGRNSPYYRWYIFHRDEFTVFRGRGKRGSYPSYETFMGYGGMPKLDHRNPEVRRYCINVLKYYVQKFDVDGFRYDVAHSIYSKFFEEVFSEIGTGILHIGEAWCLPTYLVNGSAWQSYTNYFLGGSIIDFLKGSITLGEFYDRVQRMLIVNGIEKQQAMMNVLDSHDTPRILRILNGDRKKVKLAYSILYLFDGIATIYYGDEVGLDGGKDPDDRRCFPWDSMDEDMHSFFMNLGDLREKYSLGSALEHHHHHH”, the protein production was “failed”.

For “MMCAARNTMSSSGSSPSGSDLQAFVMEFIITGFLMLVVCAVTTTKRTTEELEGLIIGATVTLNVIFVGEVSGASMNPARSIGPALVWGCYKGIWIYLLAPTLGAVSRALIHKMLPSIPNAEPKFSKTGSSHKRVSDLPL”, the protein production was “failed”.

In the case of “SGLAQPQIAAVVAAPKKPEPAKAPKAPKSKSEKENKPVVAARKANAPVAKNASPVKGGKGPAGGDVGRPKNPTANGANNQGRFNNNQRYGNKESNGEFGNELPQRQFNNRDNRGPPRVRTGEKFG”, the protein production is reported as “failed”.

In the case of “MKRGLRKERNKEDEAGKIVNEGKAHLFYKVIILMVFYISYGIYLYWRFAYTIPRGYGDIALIAGYVLFIAETIGFLESSMFYLTLWDTNTPSTPEVQDKEFPHVDIFIASYNEPRNLLYKTLIGCKNMDYPDKSKVHIYICDDGNRKDIKELCESLKVGYITREDNTHAKAGNLNNALKQTSSPYVVTFDADMIPMHDFLLKTIPFFMVEDKIGFVQVPQNFYNADPFQYNLFNESRVPNEQNLFSRLIQAGKNRFNAIIYSGSNTVLSREALNEINGLVVGTITEDFATGMKIQSKGYKCIYLNETHASGLSPESLEDLYSQRIRWGRGVIQTFKAFNPLFMRGLNIYQKLMYFSAFSYWYFGLWRLIFFMAPIVFSVFGVVVLSTSAIQMLEVWLPMFIFTNLTFYHFSKKVRSVSWTHIYDTILFPQITVGILKETFGFKMSKFKVTPKENVRRDNFTNRFELVRVQIVLAVLSFAGIVRIIYLYVTNNFEAQYIINLFWLTYNFYLLVMAIFFASERPKFRNNERMFVSEEAYVVNNEQKLYGKTIDISETGISIKLEKPICIDPNENYSIGVKTARNSAEFSGKIVRVDNFKDGHKYAFNITEIDEKNFSELILILYDRVPPSPEKQKRDYMTVNVLRNIINRKKRIVPLNRKLPRVKIDKKVKILVSKNEEGIHVVDFNYMYIAVKCVQEYDSFILPLSEKFNINLNCTYDKTLSERNRKKVSIYKVTNYDEFKDHDLLELLKAVPVYNEELNIHEKVAAVK”, the protein production is reported as “failed”.

With “QRISLEIMTLQPRCEDVETAEGVALTVTGVAQVKIMTEKELLAVACEQFLGKNVQDIKNVVLQTLEGHLRSILGTLTVEQIYQDRDQFAKLVREVAAPDVGRMGIEILSFTIKDVYDKVDYLSSLGKTQT” the protein production was “not failed”.

For “TQKKVEVETLEQKIIRADRELAELLEIDEGDEVNYRVVYLRANGEIYAKAISFTPLKRLENSFREDLMRADIPIGKIMRKHNIEARREIRWSRVEEADLALAKELGIADRRVISRNYNIIHRGKVLINITEFFPMERFR”, the protein production was “failed”.

In the case of “MKAYALVGGPTDLWLHDIKKQLTEAKQNNDLIFGVDRGALFLEELGIIPDVAIGDFDSLQAKDLSRIEKTVKDIRYSNPIKDWTDSEIMVQTVFKDYLADKLIILGASGGRIDHFLINLLMWLNPPINQFAQRVEIIDNHNSIVFFNPGVHIIKKKPDYPYIGFATLSETEDFNISGARYDLNDYSSTYPRVFSSNEFLPNSDYFEISLKKGMIAAIYSKDINRFHNLLEHHHHHH”, the protein production is reported as “not failed”.

For “MALQAGVEKGENLVVAAPTGSGKTFIALVAIVNSLARAGGRAFYLVPLKSVAYEKYTSFSILSRMGLKLKISVGDFREGPPEAPVVIATYEKFDSLLRVSPSLARNVSVLIVDEIHSVSDPKRGPILESIVSRMLASAGEAQLVGLSATVPNAGEIAEWIGGKIVESSWRPVPLREYVFKEYKLYSPTGGLREVPRVYGLYDLDLAAEAIEDGGQALVFTYSRRRAVTLAKRAAKRLGRRLSSREARVYSAEASRAEGAPRSVAEELASLIAAGIAYHHAGLPPSLRKTVEEAFRAGAVKVVYSTPTLAAGVNLPARRVVIDSYYRYEAGFREPIRVAEYKQMAGRAGRPGLDEFGEAIIVAERLDRPEDLISGYIRAPPERVESRLAGLRGLRHFILGIVAPEGEVSIGSIEKVSGLTLYSLQRGLPRETIARAVEDLSAWGLVEVKGWRIAATSLGREVAAVYLDPESVPVFREEVKHLSFDNEFDILYLISTMPDMVRLPATRREEERLLEAILDASPRMLSSVDWLGPEEMAAVKTAVVLKLWIDEASEDTIYGEWGVHTGDLLNMVSTAEWIASGLSRIAPYLGLNSKVSHILSVIARRIKHGVKPELLQLVEIPGVGRVRARILFEAGYRSIEDLATARAEDLMRLPLIGPSTARQILEFLGRVDEAREAEAREMLARKGLLSYLEGDAVAGEEGE”, the protein production was “failed”.

In the case of “MDRKKVMVRHSIASLVALGIFGGSRFLYNVIIGRKYGVETLGYTNSIISQAFFVAGFLAFFSVGLGKFTSEFLGKGEYNRIKKLTGISFTFPFLGLILIPLNFHVALLSVLRAIQLTFRSFIYGLHKGELYAYSVILAFPFFLLGFLDGPLLPYYLLLGTIGIFSLSYLVSRSLIGLPGREDTKALIGFSTWAFLGTIAGIFLLQAPYFLTEKLAGNIEAGIVSVALSTAFLLSYLPQILQSAIVPLYAYDYAKGDDKAIKELAENSTLLLSLFSSLLVFGLIFAKSFVEVLFNIKMGAELLLALIGVELYIAYNPLINLLTATKFVKKSAIFSLIGAMVSGIFWILLIPRLGAIGTLLGLTLGYAIIFALVLWESKRKFNINAKILKPTLLAIPLQLLSLKFPYTILIYLITEIKDIEKVMAFLRDIRS”, the protein production is reported as “failed”.

In the case of “MKKCFELTPCLLAFLCITSCVEDVDNERSKGMFSASQSGFSTIEVYDLGPLNKIDLSIAKAGLEDTGGTVTFSVEQSLLDSLNNADGTSYQLLPPECYTIENATYSVSPGGDRRVTGGSLVYDPHKIYNLCGFDELKYVLPLRVSSTGTPMNSDRTATLYGFIVKEAIVRLASTGGDFVVEGGTTTSPMNLDTEISFENEWDLTTSFATKGADYVDNYNSANSTYYIPLPSDFYTLPDVTIAKGKTTGGSAISLLGETLPPGNYLLPVSLGGLSGQGDASINIDKETVANYFVIKQGGPINRDHWTVTANTEEKTGEVSAAYPHNGQTISLIDGEINTFWHSKWQGGEVAPPYEIILDMGKENSVSQLGLIARQNALTSMNLEIYAGDDGETWNLIGKYFFDGSIKTEQMVPVKACDARWIRIYIPTLGSGSSVGHLAEIYVYGTDK”, the protein production is reported as “failed”.

In the case of “MAFCSLEKRHAILDWPQLQLTNGSGRCSGRVEVYYHGQWGRVCDDQWDLREADVVCRQLNCGDALEAPVQARFGDGPGEFLLDEMDCTGTESFLGQCPHAGWHLHNCGSGEDASVICEGNGEELVARPQVLPVADPVPGSRRAHVPRLSLNGADMSPDPTPVIDPDPESSKPSGDWAPVRLSGNHGSCAGRVELFYQGVWGTVCDDLWDLTEANIICRQLGCGRAVSALSEAYFGQGSGKILLDNVHCKGHEEHLEECSHLGWFSHNCDHSEDASVICSDAEYGMATLSDHPLAVMEGAMNPEKSRCGGVITKAPGKIKNPPMNEMHDNITCVWEIRANTSDRIRLAFPSLDLDCTNEYFEILDGPPSSVKSLGKPCRGLHVTFASHSNSMTLVYFRGENNIGKNFMAYYYFEAKEVTTKTPYLITIPTATSKMVTERPQFSKPAQPTHTPSGNVSPLPVPDSGDWPELRLVGGSNRCSGRVEILYQGVWGTVCDDLWDLNEAEVVCRQLECGQAVSSLGEAYFGPGSGDIFLDNLQCSGLEHYLSQCPHSGWSEHNCGHHEDAGVICSDSGAPPPPMPPGPPPTSQDPLTGGSNSCGGVISSLSGSFTSPQYPENYPTDIQCVWEIHVEKNFRIELMIPNLNLEDILGCPYDSVEIFDGPRIPSLSMGKFCAPSAVVFFSSSDILTVVFRSDYMTTNTGFYAFFNAIPQDGKESEERPVLRLAGSSGQCSGRVEILHQGAWGTVCDDLWDLNEAEVVCRQLGCGHAIAAPGSAYFGPGSGNILLDNIQCSGKENHFGQCSSSAWLDHNCGHHEDAGVICSDAEVTPSPTEGSQSCGGVISSLSGSFSSPWYPTNYPTDTECIWEIHVAEKFNIELTIPSLK”, the protein production is reported as “failed”.

With “MREEHSPVRDGRRSGGLRSLIDPRFLSSFALNDGGSISGRRSSYLKLPPQGRIKLSVVKLNGSLFDVEVAKDCSVAELKRAVEQVFTISPLEGHGMISWSHVWGHFCLCYRDQRLVNDKTSIRYLGLNDGDQLHFVRHLSIDHSPMNKRSKSPSCKRYLELDVSSIVNEIQIQNQNQNGVDDVAEKCYPGAQDELPAAESRLVNLIKGWLPYAGRWGVSRKGPECRSGPSRFSLKHFGGRPKM” the protein production was “failed”.

In the case of “MKREGNMTLLVRNFIVSIALAISDFFSFVISLYLAIGVLSITISDYETVISVNQLEGWKALHWLLGLCCIAWYSMRLRHYFYRKTFWFELKEILRTLVIFAIIEIAVMAFASWSFSRYLWVLTWFFVLLLVPLARMVTKRVLDVFGLWHRDTWIIGSGANAQEAYKAINSERNLGLVIVGFIAVTGERSENKDINGVPVLAHDPDWLSSMDKKTQFIVAVESHQSEVRNAWLRNFMIKGYRYISVIPTLRGMPLDSTDMSFIFSHEVMIFRVQQNLAKWSSRILKRAFDIVGSLAIIIILSPALIYISRKVKRDGGPSIYGHERIGKGGKSFKCLKFRSMVINSKEVLEKLLDSDSEAKKEWDATFKLKNDPRITKIGAFLRRTSLDELPQLFNVLKGEMSLVGPRPIITAELIRYNDEVDYYLLSKPGMTGLWQVSGRSDVDYETRVYLDAWYVKNWSMWNDIAILFKTISVVLKKDGAY”, the protein production is reported as “failed”.

With “MIVVTGATGNIGRPLTRALAEAGEQVTAVSRHPAAVPDGVRHLVADLAEPAGLRPALTGAKSLFLLLSGDLHALGANPADLIGEAARSGVRRVVLLSTLGVVTRPFGATRIAMRELEDTLRESGLEWAVLRPGGFASNALWWAESVRARRVVAAPFGDVGVPVVDPADIAAVAAACLLEDRHTGGAYELTGPEVITPRGQTEAIAAALGAPVAFHELTREEARTAMARSMPAELADDTLDILGNPSPAELRVSPDIERVLGRAPRPFADWAARNADAFR” the protein production was “failed”.

For “MMKCTALIVTFNRLEKLKKSVRETVKAGFSSIVIVNNGSSDGTREWLSSLSEPGITILNLKDNLGGAGGFKVGSQYICSYSNADWVFFYDDDAYPEINILKHFSLLDTSRYRIFASRVQDTYGRSCRMNLPFIRVPSTVFETIYYAMRPERFSPVRTQVTDVQTVSFVGMIIDRKVLNNHLNDIHDELFLYYDDFFFGYKLVLSGQKIRYSPEIKFIHDISIHGKCICPEWKVYYLCRNLLLLRKLLPVPRIFSVLSIVLRLSKYLAILPWQRKKFRYLYFIWQGILHGLKGISGKYH”, the protein production was “failed”.

With “MLAVSFIAGVILIGLYGVDSSERYIAVSELLANPQDYSGQNINAMGVVEDRSLHKDPGVTSFDLKDENDENLKIHVNYVGNLPSNLAEGKQVTIRGSMISESTFEANKIVTGCPSKYTELEHHHHHH” the protein production was “failed”.
